For test [1], the target named is […] presented by HLA-A*0201 (EBV; human). Put plainly: cell-based or functional assay.
Test [2] addresses […] presented by HLA-A*0201 (HCMV; human). Put plainly: cell-based or functional assay.

In the case of “TCR recognizing […] presented by A*0201 (PDB #3REV)”, in test [1], the luciferase induction, reporter T cells + U-87 APCs, short cassette 9AA (relative to uninfected controls) stood at 12; the luciferase induction, reporter T cells + U-87 APCs, short cassette 17AA (relative to uninfected controls) turned out to be 10.3; the luciferase induction, reporter T cells + U-87 APCs, short cassette 25AA (relative to uninfected controls) was determined as 14.6; the luciferase induction, reporter T cells + U-87 APCs, short cassette AAY (relative to uninfected controls) turned out to be 11.3. In test [1], the luciferase induction, reporter T cells + U-87 APCs, short cassette DPP (relative to uninfected controls) amounted to 1.1; the luciferase induction, reporter T cells + U-87 APCs, short cassette RR (relative to uninfected controls) was found to be 8.5; the luciferase induction, reporter T cells + U-87 APCs, targeting cassette A was 6.1; the luciferase induction, reporter T cells + U-87 APCs, targeting cassette B was 6.3. In test [1], the luciferase induction, reporter T cells + U-87 APCs, targeting cassette C worked out at 7.6; the luciferase induction, reporter T cells + U-87 APCs, targeting cassette D amounted to 7; the luciferase induction, reporter T cells + U-87 APCs, targeting cassette E was found to be 5.9; the luciferase induction, reporter T cells + U-87 APCs, targeting cassette F came to 3.7. Also, in test [1], the luciferase induction, reporter T cells + U-87 APCs, targeting cassette G was determined as 7.6; the luciferase induction, reporter T cells + U-87 APCs, targeting cassette H was 5.4; the luciferase induction, reporter T cells + U-87 APCs, targeting cassette J is 6.4; the luciferase induction, reporter T cells, short cassette AAY is 11.3.
As to “TCR recognizing […] presented by A*0201 (PDB #5D2N)”, in test [2], the luciferase induction, reporter T cells + U-87 APCs, short cassette 9AA (relative to uninfected controls) is 33.6; the luciferase induction, reporter T cells + U-87 APCs, short cassette 17AA (relative to uninfected controls) came out at 42.8; the luciferase induction, reporter T cells + U-87 APCs, short cassette 25AA (relative to uninfected controls) worked out at 42.3; the luciferase induction, reporter T cells + U-87 APCs, short cassette AAY (relative to uninfected controls) is 24.5. For the same substance, in test [2], the luciferase induction, reporter T cells + U-87 APCs, short cassette DPP (relative to uninfected controls) came out at 0.9; the luciferase induction, reporter T cells + U-87 APCs, short cassette RR (relative to uninfected controls) was determined as 21.7; the luciferase induction, reporter T cells + U-87 APCs, targeting cassette A was determined as 32.5; the luciferase induction, reporter T cells + U-87 APCs, targeting cassette B was found to be 31.8. In test [2], the luciferase induction, reporter T cells + U-87 APCs, targeting cassette C was determined as 29.1; the luciferase induction, reporter T cells + U-87 APCs, targeting cassette D stood at 29.1; the luciferase induction, reporter T cells + U-87 APCs, targeting cassette E worked out at 28.4; the luciferase induction, reporter T cells + U-87 APCs, targeting cassette F was 20.4. Moreover, in test [2], the luciferase induction, reporter T cells + U-87 APCs, targeting cassette G was determined as 35; the luciferase induction, reporter T cells + U-87 APCs, targeting cassette H is 30.3; the luciferase induction, reporter T cells + U-87 APCs, targeting cassette J is 38.1; the luciferase induction, reporter T cells, short cassette AAY was 24.5.

The values are drawn from patent US20230020089A1.
